Values belong to the molecule of their own block, whether it stands above or below them.
Tests used:
[1] = target: SSB protein from Sulfolobus Solfataricus P2 (SSOB) (Sulfolobus Solfataricus P2) (UniProt Q97W73); assay: native gel or EMSA; 5 µg of ssob on non-denaturing gradient polyacrylamide gel, running buffer and gel at pH 7.4, poles reversed, Coomassie stained; self-association
[2] = target: T1, SSB protein from Thermococcus kodakarensis KOD1 (KOD) (Thermococcus kodakarensis KOD1); assay: native gel or EMSA; 5 µg of SSB protein on 3.5–5–12% non-denaturing gradient polyacrylamide gel with NativeMarker, Coomassie stained; self-association; conditions: both partners purified
T1 chain: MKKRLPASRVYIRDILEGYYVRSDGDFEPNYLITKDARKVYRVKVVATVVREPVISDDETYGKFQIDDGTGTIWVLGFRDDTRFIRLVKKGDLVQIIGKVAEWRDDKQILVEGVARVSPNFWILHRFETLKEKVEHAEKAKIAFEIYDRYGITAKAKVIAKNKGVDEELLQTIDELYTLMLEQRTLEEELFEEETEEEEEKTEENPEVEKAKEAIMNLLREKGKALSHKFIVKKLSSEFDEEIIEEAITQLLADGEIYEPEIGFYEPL

[3] = target: the molecule itself; assay: as above

- stoichiometry N [1]: 4
Molecule: SSB protein from Sulfolobus Solfataricus P2 (SSOB) (from UniProt Q97W73 1-148) (natural protein)

- stoichiometry N [2]: 2
B1: SSB protein from Thermococcus kodakarensis KOD1 (KOD) (natural protein)
chain: MKKRLPASRVYIRDILEGYYVRSDGDFEPNYLITKDARKVYRVKVVATVVREPVISDDETYGKFQIDDGTGTIWVLGFRDDTRFIRLVKKGDLVQIIGKVAEWRDDKQILVEGVARVSPNFWILHRFETLKEKVEHAEKAKIAFEIYDRYGITAKAKVIAKNKGVDEELLQTIDELYTLMLEQRTLEEELFEEETEEEEEKTEENPEVEKAKEAIMNLLREKGKALSHKFIVKKLSSEFDEEIIEEAITQLLADGEIYEPEIGFYEPL
modifications: N-terminal His tag left out. The locus TK1959 (RPA41, the 41 kDa replication factor A subunit) is inferred from the printed 356 residues and 41.6 kDa; it is not printed in the paper. / N-terminal His

B2: SSB protein from Thermus thermophilus HB8 (TTH) (natural protein, UniProt Q5SLP9 1-263, looked up)
chain: MARGLNRVFLIGALATRPDMRYTPAGLAILDLTLAGQDLLLSDNGGEREVSWYHRVRLLGRQAEMWGDLLDQGQLVFVEGRLEYRQWEREGERRSELQIRADFLDPLDDRGKERAEDSRGQPRLRAALNQVFLMGNLTRDPELRYTPQGTAVARLGLAVNERRQGAEERTHFVEVQAWRDLAEWAAELRKGDGLFVIGRLVNDSWTSSSGERRFQTRVEALRLERPTRGPAQAGGSRSREVQTGGVDIDEGLEDFPPEEELPF
notes: printed length 263 residues, monomer 29.8 kDa; also called TTH SSB protein; source: E. coli BL21 (DE3), purified (70°C heat treatment, Ni2+ Sepharose, dialysis); not shown: His6, N-terminal, kept
- stoichiometry N [3]: 2

From paper PMC3554691, “Systematic Functional Comparative Analysis of Four Single-Stranded DNA-Binding Proteins and Their Affection on Viral RNA Metabolism” (PLoS ONE, 2013)
